The target in experiment [1] is antigen of Daudi B lymphoblastoid cells to which the mAbs of the invention bind. Description: FACS double labelling, peripheral blood lymphocytes of healthy individuals.
Experiment [2] shares this target. Description: FACS double labelling, peripheral blood lymphocytes of colon carcinoma patients.
Experiment [3] shares this target. Kind of experiment: FACS double labelling, peripheral blood lymphocytes of breast carcinoma patients.
For experiment [4] the target is unchanged. Kind of experiment: FACS double labelling, peripheral blood lymphocytes of prostate carcinoma patients.

This passage reports percent of CD3+ BAT+ cells (of total CD3+ cells) results from patent US20030026800A1.

B1: mouse BAT antibody (antibody, V domains shown)
VH: QIQLVQSGPELKKPGETVKISCKASGYTFTNYGMNWVKQAPGKGLKWMGWINTDSGESTYAEEFKGRFAFSLETSANTAYLQINNLNNEDTATYFCVRVGYDALDYWGQGTSVTVSS
VL: QIVLTQSPAIMSASPGEKVTITCSARSSVSYMHWFQQKPGTSPKLWIYRTSNLASGVPARFSGSGSGTSYCLTISRMEAEDAATYYCQQRSSFPLTFGSGTKLEIK
B1: the percent of CD3+ BAT+ cells (of total CD3+ cells) in experiment [1] was 25%; in experiment [2] it was 7%; in experiment [3], 10%; in experiment [4] it was 50%.
